Tested on: Escherichia coli TOP10
Assay: shrunken log2 fold change of peptide-encoding DNA abundance (4.5 h post-induction vs induction); higher = less antimicrobial activity (less host growth inhibition)
Conditions: time post-induction: 4.5 h; library: site-saturation at positions 5, 18, 19, 20
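Note: peptides expressed intracellularly from a pBAD plasmid library in pooled LB shake-flask culture, induced with 0.3% L-arabinose, DNA abundance read by NGS, three biological replicates, DESeq2 with apeglm shrinkage.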

Sequence | shrunken log2 fold change
RRIRHRPPRLPRPRPRPTQGPRP | 0.318
RRIRHRPPRLPRPRPRPTQRPRP | 0.462
RRIRHRPPRLPRPRPRPTRGPRP | 0.0497
RRIRHRPPRLPRPRPRPTSHPRP | -0.837
RRIRHRPPRLPRPRPRPTSNPRP | -0.448
RRIRHRPPRLPRPRPRPTSSPRP | -0.0142
RRIRHRPPRLPRPRPRPTSTPRP | -0.199
RRIRHRPPRLPRPRPRPTVVPRP | -0.00918
RRIRHRPPRLPRPRPRPTWPPRP | 0.25
RRIRHRPPRLPRPRPRPTYFPRP | -0.309
RRIRHRPPRLPRPRPRPTYSPRP | -0.489
RRIRHRPPRLPRPRPRPVAVPRP | -0.0993
RRIRHRPPRLPRPRPRPVCIPRP | -1.22
RRIRHRPPRLPRPRPRPVDSPRP | -0.175
RRIRHRPPRLPRPRPRPVEQPRP | 0.0184
RRIRHRPPRLPRPRPRPVFDPRP | -0.0994
RRIRHRPPRLPRPRPRPVFYPRP | -0.751
RRIRHRPPRLPRPRPRPVGFPRP | -0.203
RRIRHRPPRLPRPRPRPVHDPRP | 0.079
RRIRHRPPRLPRPRPRPVHFPRP | -0.011
RRIRHRPPRLPRPRPRPVHQPRP | 0.0507
RRIRHRPPRLPRPRPRPVHWPRP | 0.0039

Sequence | shrunken log2 fold change
RRIRHRPPRLPRPRPRPVKMPRP | -0.0874
RRIRHRPPRLPRPRPRPVMNPRP | -0.0175
RRIRHRPPRLPRPRPRPVMTPRP | -0.496
RRIRHRPPRLPRPRPRPVMVPRP | -2.78e-05
RRIRHRPPRLPRPRPRPVNKPRP | -0.579
RRIRHRPPRLPRPRPRPVPAPRP | -0.0665
RRIRHRPPRLPRPRPRPVPPPRP | 0.244
RRIRHRPPRLPRPRPRPVPQPRP | -0.0725
RRIRHRPPRLPRPRPRPVPSPRP | 0.0513
RRIRHRPPRLPRPRPRPVQFPRP | -0.335
RRIRHRPPRLPRPRPRPVQNPRP | 0.171
RRIRHRPPRLPRPRPRPVQRPRP | -0.0182
RRIRHRPPRLPRPRPRPVQYPRP | 0.00489
RRIRHRPPRLPRPRPRPVRMPRP | 0.246
RRIRHRPPRLPRPRPRPVRNPRP | 0.0796
RRIRHRPPRLPRPRPRPVTAPRP | 0.0123
RRIRHRPPRLPRPRPRPVTRPRP | -0.00217
RRIRHRPPRLPRPRPRPVTVPRP | -0.179
RRIRHRPPRLPRPRPRPVVRPRP | 0.112
RRIRHRPPRLPRPRPRPVVTPRP | -0.0256
RRIRHRPPRLPRPRPRPVWAPRP | 0.193
RRIRHRPPRLPRPRPRPVYKPRP | -0.665

Sequence | shrunken log2 fold change
RRIRHRPPRLPRPRPRPVYLPRP | -0.406
RRIRHRPPRLPRPRPRPVYMPRP | -0.2
RRIRHRPPRLPRPRPRPWATPRP | -0.0619
RRIRHRPPRLPRPRPRPWCRPRP | -0.352
RRIRHRPPRLPRPRPRPWCTPRP | -0.11
RRIRHRPPRLPRPRPRPWFIPRP | -0.775
RRIRHRPPRLPRPRPRPWFRPRP | -0.00674
RRIRHRPPRLPRPRPRPWGWPRP | 0.284
RRIRHRPPRLPRPRPRPWISPRP | -0.0102
RRIRHRPPRLPRPRPRPWKMPRP | 0.00115
RRIRHRPPRLPRPRPRPWLMPRP | -0.12
RRIRHRPPRLPRPRPRPWMEPRP | -0.00645
RRIRHRPPRLPRPRPRPWNWPRP | -0.0135
RRIRHRPPRLPRPRPRPWPSPRP | -0.00932
RRIRHRPPRLPRPRPRPWQVPRP | -0.0402
RRIRHRPPRLPRPRPRPWSLPRP | -0.121
RRIRHRPPRLPRPRPRPWTEPRP | 0.0218
RRIRHRPPRLPRPRPRPWTSPRP | -0.00277
RRIRHRPPRLPRPRPRPWWLPRP | -0.0295
RRIRHRPPRLPRPRPRPWYCPRP | -0.0324
RRIRHRPPRLPRPRPRPWYTPRP | -0.17
RRIRHRPPRLPRPRPRPYCGPRP | 0.113

Sequence | shrunken log2 fold change
RRIRHRPPRLPRPRPRPYCMPRP | -1.05
RRIRHRPPRLPRPRPRPYFHPRP | -0.955
RRIRHRPPRLPRPRPRPYFYPRP | -0.881
RRIRHRPPRLPRPRPRPYIKPRP | -0.287
RRIRHRPPRLPRPRPRPYILPRP | -0.576
RRIRHRPPRLPRPRPRPYIQPRP | -0.73
RRIRHRPPRLPRPRPRPYKQPRP | -0.0238
RRIRHRPPRLPRPRPRPYMGPRP | -0.201
RRIRHRPPRLPRPRPRPYNHPRP | -0.316
RRIRHRPPRLPRPRPRPYNLPRP | -0.302
RRIRHRPPRLPRPRPRPYPSPRP | -0.457
RRIRHRPPRLPRPRPRPYSPPRP | -0.0769
RRIRHRPPRLPRPRPRPYTEPRP | -0.204
RRIRHRPPRLPRPRPRPYVQPRP | -1.29
RRIRHRPPRLPRPRPRPYYHPRP | -0.339
RRIRIRPPRLPRPRPRPAACPRP | 0.156
RRIRIRPPRLPRPRPRPADCPRP | 0.035
RRIRIRPPRLPRPRPRPADIPRP | 0.00782
RRIRIRPPRLPRPRPRPADNPRP | 0.00497
RRIRIRPPRLPRPRPRPADSPRP | -0.325
RRIRIRPPRLPRPRPRPAFVPRP | -0.0212
RRIRIRPPRLPRPRPRPAFWPRP | 0.15

Sequence | shrunken log2 fold change
RRIRIRPPRLPRPRPRPAHFPRP | 0.0262
RRIRIRPPRLPRPRPRPAISPRP | 0.0106
RRIRIRPPRLPRPRPRPALCPRP | 0.0482
RRIRIRPPRLPRPRPRPALRPRP | 0.00782
RRIRIRPPRLPRPRPRPAMDPRP | -0.218
RRIRIRPPRLPRPRPRPAMPPRP | 0.0692
RRIRIRPPRLPRPRPRPAMWPRP | 0.13
RRIRIRPPRLPRPRPRPANHPRP | -0.528
RRIRIRPPRLPRPRPRPAQGPRP | 0.168
RRIRIRPPRLPRPRPRPAQNPRP | -0.0711
RRIRIRPPRLPRPRPRPARNPRP | -0.179
RRIRIRPPRLPRPRPRPASSPRP | 0.093
RRIRIRPPRLPRPRPRPATRPRP | 0.19
RRIRIRPPRLPRPRPRPAVFPRP | 0.103
RRIRIRPPRLPRPRPRPAVIPRP | 0.0759
RRIRIRPPRLPRPRPRPAVSPRP | -0.0873
RRIRIRPPRLPRPRPRPAWDPRP | -0.0871
RRIRIRPPRLPRPRPRPAWEPRP | -0.143
RRIRIRPPRLPRPRPRPCASPRP | 0.02
RRIRIRPPRLPRPRPRPCCTPRP | -0.482
RRIRIRPPRLPRPRPRPCDEPRP | 0.0357

From the supplement of paper PMC9112550, “Optimization of the antimicrobial peptide Bac7 by deep mutational scanning” (BMC Biology, 2022)
